From the supplement of paper PMC10567573

B1: NET1 (parent)
chain: RVRPLARVTSLANLISPVRNGAVR
B2: NECAB1 (parent)
chain: FSPNSPQFNVSGPGLLEEDNQWMT

Variants of: B1
Assay: protein stability index of a GFP-peptide fusion (GPS, HEK-293T) (PSI 1-6); higher = more stable
Conditions: c terminus: a fixed tail appended
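Further: lentivirally expressed fusions sorted by FACS into six bins by GFP to DsRed ratio, PSI derived from sequencing read proportions per bin multiplied by bin number.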

Protein stability index of substitutions, site by site:
G21: M 2.69; N 2.88; P 3.52; Q 3.12; R 2.42; S 3.56; T 3.35; V 2.69; W 2.31; Y 2.82
A22: C 2.92; D 3.35; E 3.52; F 2.4; G 3.18; H 3.03; I 2.76; K 3.36; L 2.62; M 2.25; N 3.02; P 3.49; Q 3.69; R 3.36; S 3.37; T 3.46; V 2.75; W 1.86; Y 2.54
V23: A 3.08; C 2.72; D 3.3; E 2.79; F 2.26; G 3.79; H 3.43; I 2.7; K 3.99; L 2.66; M 3.22; N 3.68; P 3.86; Q 3.73; R 3.89; S 3.4; T 3.13; W 2.4; Y 2.9
R24: A 2.98; C 3.21; D 3.37; E 3.8; F 2.44; G 2.93; H 2.38; I 2.54; K 3.47; L 2.2; M 2.19; N 2.91; P 2.93; Q 3.37; S 2.74; T 2.39; V 2.63; W 2.44; Y 1.88

Variants of: B2
Assay: as above
Conditions: c terminus: a fixed tail appended

Protein stability index: each site, then its substitutions
F1: A 4.01; C 3.13; D 4.53; E 4.79; G 4.4; H 4.23; I 4.33; K 4.43; L 4.55; M 4.7; N 4.63; P 4.51; Q 4.7; R 4.33; S 4.75; T 4.11; V 4.34; W 3.85; Y 3.25
S2: A 1.79; C 2.63; D 4.21; E 4.58; F 3.06; G 2.08; H 2.17; I 1.76; K 3.63; L 3.37; M 3.39; N 3.28; P 2.47; Q 2.95; R 3.65; T 2.23; V 2.66; W 2.58; Y 3.49
P3: A 3.26; C 2.33; D 2.24; E 3.71; F 2.59; G 2.2; H 3.17; I 3.33; K 3.11; L 2.87; M 3.22; N 2.76; Q 3.26; R 2.88; S 2.68; T 3.05; V 2.88; W 2.04; Y 2.62
N4: A 3.25; C 2.26; D 3.79; E 3.59; F 2.4; G 2.53; H 2.53; I 2.67; K 2.98; L 2.64; M 2.45; P 3.53; Q 2.8; R 2.82; S 2.89; T 3.2; V 3.03; W 2.25; Y 2.33
S5: A 2.72; C 3; D 4.04; E 3.82; F 2; G 2.72; H 3.16; I 2.75; K 2.82; L 2.93; M 3.66; N 3.03; P 3.39; Q 3.7; R 2.78; T 2.98; V 2.75; W 2.27; Y 1.94
P6: A 2.95; C 2.26; D 2.82; E 3.88; F 2.28
